Reference: US20220218614A1, “IONIZABLE CATIONIC LIPIDS AND LIPID NANOPARTICLES, AND METHODS OF SYNTHESIS AND USE THEREOF” (Tidal Therapeutics, Inc., priority 2020, published 2022)

How the values were obtained:
Format in all cases: cell-based
[1] = system: primary human NK cells; experiment: LNP transfection of co-cultured human T cells and NK cells: NK cells; settings: Lipid 8 LNP, 2.5 ug/mL mRNA, 24 hours
Experimental: CD3-depleted PBMCs were purified using magnetic-based CD3 positive selection and retaining of the negative fraction. 20 million CD3 depleted PBMCs were added to 1 well of a 6 well GREX plate in media containing 10 ng/mL IL-15 for 7 days. On day 7, each well was split in 2 and cells were cultured further in media containing 10 ng/mL IL-15 for an additional 7 days. On day 14, NK cells were concentrated to 1 million cells/mL in preparation for co-transfection with primary human T cells.
LNPs were prepared using the mixing process described in Example 6, the buffer exchange process described in Example 25. The LNPs were formulated using eGFP encoding mRNA (TriLink Biotechnologies, California, US), Lipid 8 as the ionizable lipid, and labeled with 0.01 mol % DiIC18(5)-DS (Invitrogen, Massachusetts, US). Fab-lipid conjugates generated from methods described in Example 4 while generation of Nb-conjugated differed in using 1:1:4 Nb:DSPE-SKPEG-maileimide:DSPE-2KPEG-OCH3 and a 50 kD UF membrane (Millipore Corp, Billerica, Mass. USA) for separation of Nb-conjugate from free Nb. Using methods similar to Example 12, conjugated Fabs and conjugated Nb were post-inserted at various densities (Table 41) into LNPs containing Lipid 8 and GFP mRNA with DiI dye. […]. […]
(§1) 24 hours after LNP transfection, cell culture media was aspirated from T cell and NK cell co-cultures after centrifugation. […] Following acquisition by flow cytometry, T cells and NK cells were analyzed independently using FlowJo (flow cytometry analysis software). In either CD3+ cells (T cells) or CD56+ cells (NK cells), the frequency of GFP positive events relative to GFP negative events was calculated (FIG. 64A). Additionally, the overall fluorescence of GFP was quantified by assessment of mean fluorescence intensity (MFI, FIG. 64B). […] Together, these metrics enabled quantification of LNP transfection efficiency of all targeted LNPs tested in primary human T cell and NK cell co-cultures.

[2] = system: primary human T cells; experiment: LNP transfection of co-cultured human T cells and NK cells: T cells; settings: Lipid 8 LNP, 2.5 ug/mL mRNA, 24 hours
Experimental: Primary human T cells were purified using magnetic-based CD3 negative selection. 20 million purified T cells were activated using anti-CD3/anti-CD28 coated beads for 48 hours in media containing 100 IU/mL IL-2. Following activation, activation beads were removed, and T cells were expanded for an additional 48 hours in media containing 100 IU/mL IL-2. After the expansion period, T cells were concentrated to 1 million cells/mL in preparation for co-transfection with primary human NK cells.
LNPs were prepared using the mixing process described in Example 6, the buffer exchange process described in Example 25. […]
as §1

[3] = system: human whole blood; experiment: Whole blood transfection of immune cells with Fab targeted mRNA LNPs; settings: Lipid 8 LNP, 2.5 μg/mL mCherry mRNA, 24 hours
Experimental: Venous blood from healthy volunteers was anti-coagulated in heparin tubes (BD Biosciences #367526) and seeded at 50 μL in a 96-well round-bottom plate. Transfection of whole blood was carried out simply by adding nanoparticles containing 5 μg/mL mRNA to the cells and co-culturing at 37° C. until the time of analysis. To assess transfection efficiency, cells were analyzed 24-hours post-transfection by flow cytometry. LNPs used (with and without post-inserted targets) at 2.5 μg/mL:RDM073.23. Cells obtained from human blood were analyzed by flow cytometry. Prior to the analysis of whole blood transfection efficiency, red blood cells were lysed twice with VersaLyse Lysing Solution (Beckman Coulter #A09777) for 10 minutes at room temperature. […]
Compensation for each fluorochrome was performed in the multicolor flow panels using positive and negative compensation beads. Fluorescence minus one (FMO) samples and unstained controls were included to determine the level of background fluorescence and to set the gates for the negative cell populations versus the positive cell populations.
All samples were acquired on a BD LSRFortessa X-20 (BD Biosciences) running […] software (Becton Dickinson). All data collected were analyzed using FlowJo 10.7.1 software and GraphPad Prism version 9.0. […]

B1: mutOKT8: non-functional mutated OKT8 Fab, SEQ ID NO: 22 and 23 (antibody)
heavy: QVQLVQSGAEDKKPGASVKVSCKASGFNIKDTYIHWVRQAPGQGLEWMGRIDPANDNTLYASKFQGRVTITADTSSNTAYMELSSLRSEDTAVYYCGRGAGAYVFDHWGQGTTVTVSSASTKGPSVFPLAPSSKSTSGGTAALGCLVKDYFPEPVTVSWNSGALTSGVHTFPAVLQSSGLYSLSSVVTVPSSSLGTQTYICNVNHKPSNTKVDKKVEPKSSDKTHTC
light: DIVMTQSPSSLSASVGDRVTITCRTSRSISAALAWYQEKPGKAPKLLIYSGSTLQSGVPSRFSGSGSGTDFTLTISSLQPEDFATYYCQQHNENPLTFGQGTKVEIKRTVAAPSVFIFPPSDEQLKSGTASVVCLLNNFYPREAKVQWKVDNALQSGNSQESVTEQDSKDSTYSLSSTLTLSKADYEKHKVYACEVTHQGLSSPVTKSFNRGES
transfection of NK cells in T/NK co-culture (% GFP, GFP MFI, DiI), in words [1]: high % DiI and % GFP | transfection of T cells in T/NK co-culture (% GFP, GFP MFI, DiI), in words [2]: high % DiI and % GFP | % mCherry+ cells (transfection) in whole blood, in words [3]: did not exhibit transfection of any of the immune cell types
